# B1: Tumor necrosis factor receptor superfamily member 14 (Homo sapiens), Q92956 (parent)
# chain: MEPPGDWGPPPWRSTPKTDVLRLVLYLTFLGAPCYAPALPSCKEDEYPVGSECCPKCSPGYRVKEACGELTGTVCEPCPPGTYIAHLNGLSKCLQCQMCDPAMGLRASRNCSRTENAVCGCSPGHFCIVQDGDHCAACRAYATSSPGQRVQKGGTESQDTLCQNCPPGTFSPNGTLEECQHQTKCSWLVTKAGAGTSSSHWVWWFLSGSLVIVIVCSTVGLIICVKRRKPRGDVVKVIVSVQRKRQEAEGEATVIEALQAPPDVTTVAVEETIPSFTGRSPNH
# B2: Tumor necrosis factor receptor superfamily member 14 (Homo sapiens), Q92956 (parent)
# chain: B1 chain
# partner: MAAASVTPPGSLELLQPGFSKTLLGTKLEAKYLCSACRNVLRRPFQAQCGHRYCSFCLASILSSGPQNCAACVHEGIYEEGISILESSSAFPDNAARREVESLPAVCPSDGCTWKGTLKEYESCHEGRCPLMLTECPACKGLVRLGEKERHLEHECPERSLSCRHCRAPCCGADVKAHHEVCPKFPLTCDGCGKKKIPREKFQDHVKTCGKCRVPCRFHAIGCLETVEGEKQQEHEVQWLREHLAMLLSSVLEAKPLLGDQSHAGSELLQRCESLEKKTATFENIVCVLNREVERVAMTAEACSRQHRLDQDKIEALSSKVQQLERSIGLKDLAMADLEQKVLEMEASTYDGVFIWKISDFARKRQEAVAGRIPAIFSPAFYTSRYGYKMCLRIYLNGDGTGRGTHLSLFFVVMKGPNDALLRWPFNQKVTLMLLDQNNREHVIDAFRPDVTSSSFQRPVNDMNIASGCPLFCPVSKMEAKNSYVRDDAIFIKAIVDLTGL
# Variants of: B1
# Details: with traf5_human TRAF5, O00463
# Sequence of traf5_human TRAF5, O00463 (O00463 whole entry): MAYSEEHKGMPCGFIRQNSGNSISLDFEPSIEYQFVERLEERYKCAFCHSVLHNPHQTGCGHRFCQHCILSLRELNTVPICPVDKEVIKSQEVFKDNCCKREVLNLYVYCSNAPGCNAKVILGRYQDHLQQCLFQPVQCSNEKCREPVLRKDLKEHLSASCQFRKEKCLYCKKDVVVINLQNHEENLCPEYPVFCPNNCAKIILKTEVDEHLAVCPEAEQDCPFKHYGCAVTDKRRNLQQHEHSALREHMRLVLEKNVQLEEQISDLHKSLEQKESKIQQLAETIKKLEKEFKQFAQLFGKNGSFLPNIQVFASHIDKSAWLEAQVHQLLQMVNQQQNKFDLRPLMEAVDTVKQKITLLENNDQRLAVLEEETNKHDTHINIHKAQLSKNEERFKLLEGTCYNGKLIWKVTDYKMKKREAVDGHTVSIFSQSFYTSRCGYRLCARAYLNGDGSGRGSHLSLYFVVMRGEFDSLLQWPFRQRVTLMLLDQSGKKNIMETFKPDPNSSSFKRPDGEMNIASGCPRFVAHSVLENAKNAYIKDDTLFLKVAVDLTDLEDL
row,Variant,effect of a mutation on the interaction
1,E271A,decreasing interaction

# Variants of: B2
# Details: with traf2_human TRAF2, Q12933
row,Variant,effect of a mutation on the interaction
1,E271A,decreasing interaction

# From IntAct's records for PubMed 9153189
